The text below walks through data of patent US8211649B2, “Methods of diagnosing and prognosing hodgkin's lymphoma” (Human Genome Sciences, Inc., priority 2006, dated 2012).

The subject of one data set is human tonsillar B cells. The experiment in a line: B lymphocyte co-stimulatory proliferation assay (3H-thymidine). Format: cell-based. Conditions: after biotinylation. As for the experimental part:
Purified recombinant Neutrokine-alpha (“rNeutrokine-alpha”) was assessed for its ability to induce activation, proliferation, differentiation or death in numerous cell based assays involving B cells, T cells, monocytes, NK cells, hematopoietic progenitors, and a variety of cell types of endothelial and epithelial origin. […] A dose-dependent response is readily observed as the amount of crosslinking agent increases in the presence of a fixed concentration of either 1L2 or rNeutrokine-alpha.
B lymphocyte proliferation assay. […] The resulting cell population was routinely greater than 95% B cells as assessed by expression of CD19 and CD20. […] Proliferation was quantitated by a 20 h pulse (1 microCi/well) of ^3H-thymidine (6.7 Ci/mM) beginning 72 h post factor addition.
In Vitro assay—Purified Neutrokine-alpha and/or Neutrokine-alphaSV protein, or truncated forms thereof, is assessed for its ability to induce activation, proliferation, differentiation or inhibition and/or death in B-cell populations and their precursors. […] Novel synergizing agents can be readily identified using this assay. […] The resulting cell population is greater than 95% B cells as assessed by expression of CD45R(B220). […] Proliferation or inhibition is quantitated by a 20 h pulse (1 uCi/well) with ^3H-thymidine (6.7 Ci/mM) beginning 72 h post factor addition. […]

Data set [1] has as its system Neutrokine-alpha receptor. The experiment in a line: FACS binding of biotinylated Neutrokine-alpha to blood cells and cell lines. The arrangement: species or system human. An excerpt: In an attempt to correlate the specific biological activity on B cells with receptor expression, purified Neutrokine-alpha was biotinylated. […] In contrast, biotinylated Neutrokine-alpha bound peripheral CD20^+ B cells. Receptor expression was also detected on the B cell tumor lines REH, ARH-77, Raji, Namalwa, RPMI 8226, and IM-9 but not any of the myeloid-derived lines tested including THP-1, HL-60, K-562, and U-937. Similar results were also obtained using a biologically active FLAG-tagged Neutrokine-alpha protein instead of the chemically modified biotin-Neutrokine-alpha. […] It remains to be shown whether cellular activation may induce expression of Neutrokine-alpha receptors on peripheral blood cells, other normal cell types or established cell lines.
(§1) FACS analysis. Neutrokine-alpha expression was assessed on human cell lines, freshly isolated normal peripheral blood nucleated cells, and in vitro cultured monocytes, a mouse anti-human Neutrokine-alpha mAb 2E5 (IgG1) followed by PE-conjugated F(ab′)2 goat antibody to mouse IgG (CALTAG Laboratories, Burlingame, Calif.). Cells were analyzed using a FACScan (Becton Dickinson Immunocytometry Systems, San Jose, Calif.) with propidium iodide to exclude dead cells. Neutrokine-alpha binding was assessed using rNeutrokine-alpha biotinylated with a N-hydroxysuccinimidobiotin reagent (Pierce, Rockford, Ill.) followed by PE-conjugated streptavidin (Dako Corp, Glostrup, Denmark).
For orientation: A flow cytometer gives signals particle by particle.

For the next data set, the system named is HIV. Conditions: greater activity; cited from earlier work.
On the set-up of data set [2]: species or system BALB/c mice. Conditions: mouse. The protocol:
Neutrokine-alpha was radiolabeled with ^125I and injected intravenously into BALB/c mice. Three doses and 4 timepoints over a 24-hr period were studied. Biodistribution was measured by direct counting of the radioactivity in dissected whole organs or tissues and by whole body quantitative autoradiography (QAR).

For data set [3], the system named is Neutrokine-alpha expression on monocytes. The data set can be described thus: FACS of Neutrokine-alpha cell surface expression with mAb 2E5. As to conditions: IFN-gamma 100 U/mL for three days. It is filed as cell-based, human. The protocol:
The expression profile of Neutrokine-alpha was assessed by Northern blot (FIG. 7B) and flow cytometric analyses (Table V and FIGS. 8A, 8B and 8C). Neutrokine-alpha is encoded by a single 2.6 kb mRNA found at high levels in peripheral blood leukocytes, spleen, lymph node and bone marrow. Lower expression levels were detected in placenta, heart, lung, fetal liver, thymus and pancreas. Among a panel of cell lines, Neutrokine-alpha mRNA was detected in HL-60 and […], but not in Raji, HeLa, or MOLT-4 cells. […] A concomitant increase in Neutrokine-alpha-specific mRNA was also detected (FIG. 8C). By contrast, Neutrokine-alpha was not expressed on freshly isolated peripheral blood granulocytes, T cells, B cells, or NK cells.
as §1

Data set [4] has as its system Neutrokine-alpha expression in monocytes and macrophages. The data set can be described thus: cytokine effect on Neutrokine-alpha expression and release in monocytes and macrophages. Format: cell-based. As to conditions: single cytokine, in vitro.
Data set [5] has as its target T1, Neutrokine-alpha protein (Homo sapiens, UniProt Q9Y275).
Description: A Phase 2, multi-center, randomized, double-blind, placebo-controlled study was performed in subjects with RA. Subjects were randomized into 4 treatment groups (placebo, 1 mg/kg, 4 mg/kg and 10 mg/kg).
An ACR20 response is defined as at least a 20% reduction in tender joint count and swollen joint count, in addition to an improvement of at least 20% on three of five other assessments of symptoms or disease manifestations (i.e., patient pain assessment, patient global assessment, physician global assessment, patient self-assessed disability, acute-phase reactant [ESR or CRP]).
Data set [6] addresses T1, Neutrokine-alpha protein. This is another data set of the same source.
Description: 449 subjects with SLE by ACR criteria (Tan et al., Arthritis Rheum. 25:1271-7, (1982); and Hochberg et al., Arthritis Rheum. 40:1725, (1997)) and SELENA SLEDAI score ≧4 at screening were dosed.
In a further data set the test system is B cells. The data set can be described thus: Neutrokine-alpha mediated B cell proliferation, enhancement by cytokines. It is filed as cell-based. Conditions: observed by the inventors.
The mark [7] stands for this setting: week 52, all treatment groups combined, reduction.

Where two headings read alike, the source gives them in different places.

T1 sequence (Q9Y275 134-285 limits assumed): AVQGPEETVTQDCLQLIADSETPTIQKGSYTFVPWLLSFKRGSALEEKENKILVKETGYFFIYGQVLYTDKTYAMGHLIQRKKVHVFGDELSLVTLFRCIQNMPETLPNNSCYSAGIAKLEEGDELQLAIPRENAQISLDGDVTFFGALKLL

Regarding “biotinylated Neutrokine-alpha: purified Neutrokine-alpha biotinylated with N-hydroxysuccinimidobiotin reagent”, the “biological function in the standard B cell proliferation assays” value in the data set with human tonsillar B cells is listed as “retained biological function”. Further, the “receptor expression (binding of biotinylated Neutrokine-alpha)” value was “detected” in [1] (B cell tumor lines REH, ARH-77, Raji, Namalwa, RPMI 8226, IM-9) and “not any” in [1] (myeloid-derived lines THP-1, HL-60, K-562, U-937). The “binding of biotinylated Neutrokine-alpha” value in [1] (T cells, monocytes, NK cells and granulocytes of human peripheral blood) is “undetectable”; in data set [1] (peripheral CD20+ B cells) it was “bound”.
`C[C@H](Sc1nc(N)cc(Cl)n1)c1cc2ccoc2cn1` [PNU-142721]: in the data set with HIV, the “activity relative to delavirdine” value is on record as 20- to 50 fold.
Consider “radiolabeled Neutrokine-alpha: Neutrokine-alpha (amino acids 134-285 of SEQ ID NO:2) radiolabeled with 125I”, for which the “in vivo targeting specificity” value in data set [2] is listed as “high in vivo targeting specificity for lymphoid tissues”. Moreover, in [2] (in vivo), the “QAR signal in liver and kidney” value is recorded as “no longer had observable levels”; the “QAR signal in spleen, lymph nodes and GALT” value is “still strongly positive”. In addition, in [2] (in vivo, iv, 0.01 mg/kg, 3 h), the “concentration of radioactivity in kidney” value is given as ~5 % injected dose (ID)/g, the “concentration of radioactivity in liver” value is listed as ~5 % injected dose (ID)/g, the “concentration of radioactivity in lymph node” value is listed as 23 % injected dose (ID)/g and the “concentration of radioactivity in spleen” value is reported as 63 % injected dose (ID)/g.
With `Nc1nc(=O)n([C@@H]2CS[C@H](CO)O2)cc1F` [COVIRACIL, emtricitabine], the “activity in vitro relative to lamivudine (3TC)” value in the data set on HIV is recorded as 3- to 10 fold.
`CC[C@H]1C(=O)Nc2ccc(F)cc2N1C(=O)OC(C)C` [GW-420867X]: the “activity relative to HBY097” value with HIV is listed as 25 fold.
As for IFN-gamma: cytokine, the “upregulation of Neutrokine-alpha expression on resting monocytes” value in data set [3] is given as “approximately 4 fold”. For the same molecule, in data set [4], the “cell surface expression of Neutrokine-alpha in monocytes and macrophages” value (“cell surface expression” for short) is given as “enhance”.
As to “belimumab: an antibody that neutralizes Neutrokine-alpha protein”, in the data set with Neutrokine-alpha protein [5] (1 mg/kg treatment group, 24 weeks (p=0.0097)), the “ACR20 response versus placebo” value is given as “statistically superior”. For the same molecule, the ACR20 response result with Neutrokine-alpha protein [5] (Week 48, extension period) is “approximately 40%”. Further, the “ACR20 response versus placebo” value with Neutrokine-alpha protein [5] (all active treatment groups combined, 24 weeks (p=0.0213)) is reported as “statistically superior”. Besides, in the data set with Neutrokine-alpha protein [5] (biological activity), the “CD20+ B-cells, naïve B-cells, activated B-cells and RF” value was “statistically significant reductions”. Moreover, the “decrease of serum IgG” value with Neutrokine-alpha protein [6] (belimumab-treated arms) was determined as 10%. The PGA entry in the data set with Neutrokine-alpha protein [6] (by week 16 through week 52, all active vs. placebo) is given as “improved”. Also, in the data set with Neutrokine-alpha protein [6] (in vivo), the “plasma and memory cell populations” value is “preserved”; the “primary efficacy endpoints (percent reduction in SS score at week 24, time to flare over 52 weeks)” value is “did not reach statistical significance”; the “safety, including adverse events, AE severity, infections or lab toxicity vs. placebo” value was “No clinically significant differences”; the “severe infusion reaction events” value was 1. In the data set with Neutrokine-alpha protein [6] (in vivo), this molecule showed a subjects with pleurisy of 3.3%. The “increase of C4” value with Neutrokine-alpha protein [6] (low baseline C4, belimumab-treated arms) was 33%. Besides, the “anti-dsDNA+ subjects converted to negative” value with Neutrokine-alpha protein [6] (week 52) is 14.5%. Besides, the SS score result in the data set with Neutrokine-alpha protein [6] (week 52, ANA+ subjects) is given as “significantly reduced”. Moreover, in the data set with Neutrokine-alpha protein [6] (setting [7]), the “median percent change in CD20+ B cells” value is 54% and the “median percent change in plasmacytoid B cells (CD20+/CD138+)” value was determined as 62%. The “reduction of anti-dsDNA Ab” value in the data set with Neutrokine-alpha protein [6] (week 52, baseline positive) is listed as 30%. Also, in the data set with Neutrokine-alpha protein [6] (week 52, reduction), the “median percent change in activated B-cells (CD20+/CD69+ B cells)” value was 70%. In addition, in the data set with Neutrokine-alpha protein [6] (weeks 24-52 using a 24 week baseline), the SLE flares entry is “decreased”.

B1: IL-4: cytokine (protein, UniProt P05112 25-153, looked up)
Interleukin-4: HKCDITLQEIIKTLNSLTEQKTLCTELTVTDIFAASKNTTEKETFCRAATVLRQFYSHHEKDTRCLGATAQQFHRHKQLIRFLKRLDRNLWGLAGLNSCPVKEANQSTLENFLERLKTIMREKYSKCSS
In the case of B1, the “cell surface expression” value in data set [4] is listed as “decreased”. Besides, in the data set with B cells, the “effect on Neutrokine-alpha mediated B cell proliferation” value is given as “enhance”.

B2: IL-10: cytokine (protein, UniProt P22301 19-178, looked up)
Interleukin-10: SPGQGTQSENSCTHFPGNLPNMLRDLRDAFSRVKTFFQMKDQLDNLLLKESLLEDFKGYLGCQALSEMIQFYLEEVMPQAENQDPDIKAHVNSLGENLKTLRLRLRRCHRFLPCENKSKAVEQVKNAFNKLQEKGIYKAMSEFDIFINYIEAYMTMKIRN
In the case of B2, the “cell surface expression” value in data set [4] is “enhance”. Further, the “effect on Neutrokine-alpha mediated B cell proliferation” value with B cells is given as “enhance”.
